Our source for the efficacy (Emax) of cytokine production (TNF-α, IFN-γ, IL-2; ELISA) by c58c61-TCR CD8+ T cell blasts on plate-immobilised pMHC with a titration of coimmobilised CD58, 8 h and potency (EC50 of pMHC) of cytokine production (TNF-α, IFN-γ, IL-2; ELISA) by c58c61-TCR CD8+ T cell blasts on plate-immobilised pMHC with a titration of coimmobilised CD58, 8 h values is article PMC7477745.

A value given as a limit tells only on which side of the number the result lay.

This assay deals with CD2 (human (endogenous in primary CD8+ T cells)) (UniProt P06729).
Sequence of UniProt P06729 (P06729 25-351): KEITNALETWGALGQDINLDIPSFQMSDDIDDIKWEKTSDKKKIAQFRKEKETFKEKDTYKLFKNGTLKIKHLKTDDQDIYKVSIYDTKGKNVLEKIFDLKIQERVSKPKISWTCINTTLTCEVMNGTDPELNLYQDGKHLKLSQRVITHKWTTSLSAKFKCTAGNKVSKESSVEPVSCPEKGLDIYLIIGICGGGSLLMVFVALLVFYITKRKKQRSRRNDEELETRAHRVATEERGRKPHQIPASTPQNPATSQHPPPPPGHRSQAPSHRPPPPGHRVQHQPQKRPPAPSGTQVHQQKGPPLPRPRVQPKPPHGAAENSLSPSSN

Substance “extracellular part of human CD58 (aa 29–213) (from UniProt P19256 29-213) (ligand)” had an efficacy (Emax) of cytokine production (TNF-α, IFN-γ, IL-2; ELISA) by c58c61-TCR CD8+ T cell blasts on plate-immobilised pMHC with a titration of coimmobilised CD58, 8 h of more than 10 fold and a potency (EC50 of pMHC) of cytokine production (TNF-α, IFN-γ, IL-2; ELISA) by c58c61-TCR CD8+ T cell blasts on plate-immobilised pMHC with a titration of coimmobilised CD58, 8 h of 50 fold.
